The results in this text go back to patent publication US20070042946A1.

Experiment [1] addresses human α-thrombin (human), P00734. The experiment is described as follows: cell-based or functional assay.
The target is the same in experiment [2]. The experiment can be described thus: amidolytic assay, 25° C.; from competitive inhibition at inhibitor above 20 nM (footnote c); non-competitive behaviour below 20 nM.
The target is the same in experiment [3]. The experiment is described as follows: amidolytic assay, Tos-Gly-Pro-Arg-pNA hydrolysis by human α-thrombin, 25° C.

For orientation: Ki means the dissociation constant of the complex between target and ligand, obtained from inhibition or displacement.

B1: WD22-R-P (peptide)
peptide: WDPRPQRHNDGDFEPIPEEYLQ
modifications: not checked
For B1, in experiment [1], the IC50 (DCT), clotting assay, 37° C.; recombinant peptide WD22-R-P^(d) is 8.1 nM and the IC50 (DCT), clotting assay, 37° C.; synthetic peptide came out at 6.7 nM. Also, the Ki in experiment [2] was 171 nM.

B2: WD22-R-YP (peptide)
peptide: WDPRPQRHNDGDYEPIPEEYLQ
modifications: not checked
Take B2: in experiment [1], the IC50 (DCT), clotting assay, 37° C.; recombinant peptide WD22-R-YP^(d) is 4.8 nM and the IC50 (DCT), clotting assay, 37° C.; synthetic peptide worked out at 4.5 nM. In experiment [2], the Ki worked out at 358 nM.

B3: WD22-L-P (peptide)
peptide: WDPRPQLHNDGDFEPIPEEYLQ
modifications: not checked
In turn, B3 showed an IC50 (DCT), clotting assay, 37° C. in experiment [1] of 26 nM. The inhibitory constant (Ki) in experiment [3] is 39 nM.

B4: FN (peptide)
peptide: FNPRP
modifications: not checked
B4: in experiment [1], the IC50 (DCT), clotting assay, 37° C. was greater than 100000 nM. In experiment [3], this molecule registered a Ki greater than 2000 nM.
